US20240293576A1

Tests used:
HIV virus pAD-8 (HIV-1) = test: cell-based or functional assay
HIV virus pNL4-3 (HIV-1) = test: cell-based or functional assay

Substance	AD-8 RLU (TZMbl luciferase, neutralisation by supernatant) (HIV virus pAD-8 (HIV-1))	pNL4-3 RLU (TZMbl luciferase, neutralisation by supernatant) (HIV virus pNL4-3 (HIV-1))
anti-HIV broad-spectrum neutralizing antibody 10E8V4-5R+100cF	976000 RLU	121000 RLU
anti-HIV broad-spectrum neutralizing antibody PGT128	147000 RLU	474000 RLU
